# Experimental data published in patent US20250352661A1 (MYTHIC THERAPEUTICS, published 2025).
# T1: Human LRRC15 Protein, His Tag (Acro Biosystems) (human, UniProt Q8TF66 22-538, limits assumed)
# T1 construct: not shown: His tag
# T1 sequence (looked up): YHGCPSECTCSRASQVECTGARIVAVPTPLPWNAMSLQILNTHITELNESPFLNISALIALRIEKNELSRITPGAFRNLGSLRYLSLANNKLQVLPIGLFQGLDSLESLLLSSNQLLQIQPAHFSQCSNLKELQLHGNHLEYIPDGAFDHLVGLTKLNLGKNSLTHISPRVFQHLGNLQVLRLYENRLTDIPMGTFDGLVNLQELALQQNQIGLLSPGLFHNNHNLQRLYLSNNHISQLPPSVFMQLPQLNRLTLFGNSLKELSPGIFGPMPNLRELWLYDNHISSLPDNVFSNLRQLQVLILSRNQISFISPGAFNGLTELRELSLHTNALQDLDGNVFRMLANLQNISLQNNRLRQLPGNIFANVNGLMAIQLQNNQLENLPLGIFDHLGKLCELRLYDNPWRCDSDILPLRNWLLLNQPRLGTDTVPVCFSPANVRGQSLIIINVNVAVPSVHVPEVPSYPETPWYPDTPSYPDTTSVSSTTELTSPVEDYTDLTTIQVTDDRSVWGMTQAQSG
# T2: Human LRRC15 Protein, His Tag (Acro Biosystems) (human, UniProt Q8TF66 22-538, limits assumed)
# T2 sequence (looked up): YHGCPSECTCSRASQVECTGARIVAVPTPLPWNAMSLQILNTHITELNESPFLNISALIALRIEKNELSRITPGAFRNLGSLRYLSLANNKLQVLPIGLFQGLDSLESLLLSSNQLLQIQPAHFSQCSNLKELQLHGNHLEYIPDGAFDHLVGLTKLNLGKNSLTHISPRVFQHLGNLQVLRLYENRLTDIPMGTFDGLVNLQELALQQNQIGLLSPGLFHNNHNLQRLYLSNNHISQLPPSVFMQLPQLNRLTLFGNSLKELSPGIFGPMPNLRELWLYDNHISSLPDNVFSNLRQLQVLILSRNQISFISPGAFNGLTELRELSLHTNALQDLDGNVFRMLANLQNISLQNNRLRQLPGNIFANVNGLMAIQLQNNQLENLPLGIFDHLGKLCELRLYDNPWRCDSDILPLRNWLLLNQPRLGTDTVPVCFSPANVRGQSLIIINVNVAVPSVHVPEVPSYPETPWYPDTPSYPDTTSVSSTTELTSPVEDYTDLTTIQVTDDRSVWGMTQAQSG
# Molecular target: T1, Human LRRC15 Protein, His Tag (Acro …)
# Experiment: BLI; dissociation pH 7.4 black, pH 5.4 grey [1/2); D00025 FIG. 6B (1/2]
# Procedure: Desirable mutations were transferred to a humanized framework (humanized, MYT 8387-8411). After allowing for four days of protein expression, cell culture supernatants were collected, quantified by SDS-PAGE analysis, and the pH dependence of the variant was evaluated using biolayer interferometry (BLI) on an Octet RED 96e instrument. Briefly, cell culture supernatants were diluted based on qualitative expression level of the variant determined by visual examination of SDS-PAGE gels, 5 μL of cell culture supernatant was diluted into 195 μL of 1×PBST, pH 7.4 for high expressors, 25 μL of cell culture supernatant was diluted into 175 μL of 1×PBST, pH 7.4 for medium expressors and 100 μL of cell culture supernatant was diluted into 100 μL of 1×PBST, pH 7.4 for low expressors for loading onto the sensor tips. The resulting diluted supernatants were then captured on an anti-human Fc sensor (Forte Bio). A baseline was established using 1×PBST (50 mM Potassium Phosphate Buffer+150 mM NaCl+0.05% Tween 20) pH 7.4, and the […] was associated with 50 nM of LRRC15 (Human LRRC15 Protein, His Tag, Acro Biosystems) in 1×PBST pH 7.4 for 120 sec to generate an association curve. In the dissociation phase, the antibody-antigen complex on the sensor was exposed to 1×PBST pH 7.4 or pH 5.4, for 300 sec. Association and dissociation phase curves were examined for the starting ABPC antibody (with no substitutions) and each corresponding antibody variant at pH 5.4 and pH 7.4 to inform on two criteria: a) enhanced dissociation (i.e., higher koff values) at pH 5.4 due to histidine substitution compared to the starting ABPC, (with no substitutions), and b) reduced dissociation at pH 7.4 (i.e., lower koff values) compared to pH 5.4 in the antibody variant itself and with the starting ABPC (with no substitutions).
# The methods of Examples 9-10 were applied to RabMAb clone 29F1 (rabbit VH SEQ ID NO: 572 and VL SEQ ID NO: 578; and humanized VH SEQ ID NO: 576 and VL SEQ ID NO: 582).
row,binding result,Binder
1,binds,"MYT9684 (antibody, V domains shown, also called hu29F1 VH G26E) VH: EVQLVESGGGLVQPGGSLRLSCTASEFSFSSSHWICWVRQAPGKGLEWVGCIYAGSIGSTYYASWAKGRFTISRDTSKNTVYLQMNSLRAEDTAVYYCARAPNDIYNYYFNLWGQGTLVTVSS VL: EIVMTQSPSTLSASVGDRVIITCQASENIYNYLAWYQQKPGKAPKLLIYYASTLASGVPSRFSGSGSGAEFTLTISSLQPDDFATYYCQSGYVSKSSTFGQGTKLTVL"
2,binds,"MYT9689 (antibody, V domains shown, also called hu29F1 VH S31E) VH: EVQLVESGGGLVQPGGSLRLSCTASGFSFSESHWICWVRQAPGKGLEWVGCIYAGSIGSTYYASWAKGRFTISRDTSKNTVYLQMNSLRAEDTAVYYCARAPNDIYNYYFNLWGQGTLVTVSS VL: EIVMTQSPSTLSASVGDRVIITCQASENIYNYLAWYQQKPGKAPKLLIYYASTLASGVPSRFSGSGSGAEFTLTISSLQPDDFATYYCQSGYVSKSSTFGQGTKLTVL"
3,binds,"MYT9686 (antibody, V domains shown, also called hu29F1 VH S28E) VH: EVQLVESGGGLVQPGGSLRLSCTASGFEFSSSHWICWVRQAPGKGLEWVGCIYAGSIGSTYYASWAKGRFTISRDTSKNTVYLQMNSLRAEDTAVYYCARAPNDIYNYYFNLWGQGTLVTVSS VL: EIVMTQSPSTLSASVGDRVIITCQASENIYNYLAWYQQKPGKAPKLLIYYASTLASGVPSRFSGSGSGAEFTLTISSLQPDDFATYYCQSGYVSKSSTFGQGTKLTVL"
4,binds,"MYT9688 (antibody, V domains shown, also called hu29F1 VH S30E) VH: EVQLVESGGGLVQPGGSLRLSCTASGFSFESSHWICWVRQAPGKGLEWVGCIYAGSIGSTYYASWAKGRFTISRDTSKNTVYLQMNSLRAEDTAVYYCARAPNDIYNYYFNLWGQGTLVTVSS VL: EIVMTQSPSTLSASVGDRVIITCQASENIYNYLAWYQQKPGKAPKLLIYYASTLASGVPSRFSGSGSGAEFTLTISSLQPDDFATYYCQSGYVSKSSTFGQGTKLTVL"
5,binds,"MYT9685 (antibody, V domains shown, also called hu29F1 VH F27E) VH: EVQLVESGGGLVQPGGSLRLSCTASGESFSSSHWICWVRQAPGKGLEWVGCIYAGSIGSTYYASWAKGRFTISRDTSKNTVYLQMNSLRAEDTAVYYCARAPNDIYNYYFNLWGQGTLVTVSS VL: EIVMTQSPSTLSASVGDRVIITCQASENIYNYLAWYQQKPGKAPKLLIYYASTLASGVPSRFSGSGSGAEFTLTISSLQPDDFATYYCQSGYVSKSSTFGQGTKLTVL"

# Molecular target: T2, Human LRRC15 Protein, His Tag (Acro …)
# Experiment: BLI; dissociation pH 7.4 black, pH 5.4 grey [1/2); D00006 FIG. 1E (1/2]
# Text: For each individual plot, antigen binding proteins were captured on anti-human Fc biosensors and associated with LRRC15 at pH 7.4. Dissociation was at pH 7.4 (black) or pH 5.4 (grey). Major X-axis ticks=100 seconds, with left dashed vertical line=0 seconds. Major Y-axis ticks=0.5 nm and octet plots are shown MYT5712 and MYT6080-MYT6121.
# Multiple LRRC15-binding monoclonal antibodies have been described in the literature and can be used as a template for engineering pH-dependent binding. We selected discovery RabMAb clone 15G7 (rabbit VH SEQ ID NO: 378, rabbit VL SEQ ID NO: 451; humanized VH SEQ ID NO: 382, humanized VL SEQ ID NO: 455) as a LRRC15-binding monoclonal antibody for pH-engineering via histidine scanning. […] To generate pH-dependent sequence variants, individual amino acid residues within the heavy chain CDRs were systematically substituted with a histidine (or alanine if H was already present in a given position; e.g., MYT6099), one at a time (rabbit, MYT6080-6121). Desirable mutations were transferred to a humanized framework (humanized, MYT 8387-8411). After allowing for four days of protein expression, cell culture supernatants were collected, quantified by SDS-PAGE analysis, and the pH dependence of the variant was evaluated using biolayer interferometry (BLI) on an Octet RED 96e instrument. Briefly, cell culture supernatants were diluted based on qualitative expression level of the variant determined by visual examination of SDS-PAGE gels, 5 μL of cell culture supernatant was diluted into 195 μL of 1×PBST, pH 7.4 for high expressors, 25 μL of cell culture supernatant was diluted into 175 μL of 1×PBST, pH 7.4 for medium expressors and 100 μL of cell culture supernatant was diluted into 100 μL of 1×PBST, pH 7.4 for low expressors for loading onto the sensor tips.
row,binding result,Binder
1,binds,"MYT6108 (antibody, V domains shown, chimeric rabbit 15G7 variant (rabbit variable domains, human constant regions); also called 15G7 VH A97H) VH: QEQLEESGGDLVKPGASLTLTCTASGLDFRRTNYICWVRQAPGKGLEWIGCIYIADVVHYYASWAKGRFTFSKTSSTTVTLQMTSLTAADTATYFCHRGADGGFVYGMDLWGPGTLVTVSS VL: DVVMTQTPASVSEPVGGTVTIKCQASQSIGNYLSWYQQKPGQRPKRLIYSASTLPSGVPSRFKGAGSGTEFTLTISDLESADAATYYCQNNYWLAGYGHPFGGGTEVVVK"
2,binds,"MYT6109 (antibody, V domains shown, chimeric rabbit 15G7 variant (rabbit variable domains, human constant regions); also called 15G7 VH R98H) VH: QEQLEESGGDLVKPGASLTLTCTASGLDFRRTNYICWVRQAPGKGLEWIGCIYIADVVHYYASWAKGRFTFSKTSSTTVTLQMTSLTAADTATYFCAHGADGGFVYGMDLWGPGTLVTVSS VL: DVVMTQTPASVSEPVGGTVTIKCQASQSIGNYLSWYQQKPGQRPKRLIYSASTLPSGVPSRFKGAGSGTEFTLTISDLESADAATYYCQNNYWLAGYGHPFGGGTEVVVK"
3,binds,"MYT6110 (antibody, V domains shown, chimeric rabbit 15G7 variant (rabbit variable domains, human constant regions); also called 15G7 VH G99H) VH: QEQLEESGGDLVKPGASLTLTCTASGLDFRRTNYICWVRQAPGKGLEWIGCIYIADVVHYYASWAKGRFTFSKTSSTTVTLQMTSLTAADTATYFCARHADGGFVYGMDLWGPGTLVTVSS VL: DVVMTQTPASVSEPVGGTVTIKCQASQSIGNYLSWYQQKPGQRPKRLIYSASTLPSGVPSRFKGAGSGTEFTLTISDLESADAATYYCQNNYWLAGYGHPFGGGTEVVVK"
